Results reported in PMC9677509 (Biochemistry, 2017).

Experiments:
[1] = target: temperature sensitive HARS with the R362H substitution (UniProt P12081); test: AUC
[2] = target: the molecule itself; test: AUC

“temperature sensitive HARS with the R362H substitution (from UniProt P12081 1-509) (enzyme)” showed a stoichiometry N [1] of 2.

B1: human FLAG-tagged wild type histidyl-tRNA synthetase (HARS) (enzyme, UniProt P12081 1-509, looked up)
chain: MAERAALEELVKLQGERVRGLKQQKASAELIEEEVAKLLKLKAQLGPDESKQKFVLKTPKGTRDYSPRQMAVREKVFDVIIRCFKRHGAEVIDTPVFELKETLMGKYGEDSKLIYDLKDQGGELLSLRYDLTVPFARYLAMNKLTNIKRYHIAKVYRRDNPAMTRGRYREFYQCDFDIAGNFDPMIPDAECLKIMCEILSSLQIGDFLVKVNDRRILDGMFAICGVSDSKFRTICSSVDKLDKVSWEEVKNEMVGEKGLAPEVADRIGDYVQQHGGVSLVEQLLQDPKLSQNKQALEGLGDLKLLFEYLTLFGIDDKISFDLSLARGLDYYTGVIYEAVLLQTPAQAGEEPLGVGSVAAGGRYDGLVGMFDPKGRKVPCVGLSIGVERIFSIVEQRLEALEEKIRTTETQVLVASAQKKLLEERLKLVSELWDAGIKAELLYKKNPKLLNQLQYCEEAGIPLVAIIGEQELKDGVIKLRSVTSREEVDVRREDLVEEIKRRTGQPLCIC
In the case of B1, the “stoichiometry N” value [2] is reported as 2.

B2: human FLAG-tagged Y454S histidyl-tRNA synthetase (HARS) (enzyme, UniProt P12081 1-509, looked up)
chain: MAERAALEELVKLQGERVRGLKQQKASAELIEEEVAKLLKLKAQLGPDESKQKFVLKTPKGTRDYSPRQMAVREKVFDVIIRCFKRHGAEVIDTPVFELKETLMGKYGEDSKLIYDLKDQGGELLSLRYDLTVPFARYLAMNKLTNIKRYHIAKVYRRDNPAMTRGRYREFYQCDFDIAGNFDPMIPDAECLKIMCEILSSLQIGDFLVKVNDRRILDGMFAICGVSDSKFRTICSSVDKLDKVSWEEVKNEMVGEKGLAPEVADRIGDYVQQHGGVSLVEQLLQDPKLSQNKQALEGLGDLKLLFEYLTLFGIDDKISFDLSLARGLDYYTGVIYEAVLLQTPAQAGEEPLGVGSVAAGGRYDGLVGMFDPKGRKVPCVGLSIGVERIFSIVEQRLEALEEKIRTTETQVLVASAQKKLLEERLKLVSELWDAGIKAELLYKKNPKLLNQLQSCEEAGIPLVAIIGEQELKDGVIKLRSVTSREEVDVRREDLVEEIKRRTGQPLCIC
With B2 the “stoichiometry N” value [2] was 2.
